PMC8449271 (The Journal of Biological Chemistry, 2021)

Molecular target: the molecule itself
Experiment: mass photometry

| Protein | stoichiometry N |
| --- | --- |
| Cryptococcus neoformans bifunctional GARs/AIRs (phosphoribosyl-glycinamide synthetase / phosphoribosyl-aminoimidazole synthetase), recombinant His-tagged (enzyme, UniProt J9VYP5 1-802, looked up) MPEITAFPQPKSDLSILLLGAGGREHALAFKLAQSSRVARIVVCPGNGGTALMGGKVSNLALPWGAPPAFRSIVEWAQKENIDLVVPGPEQPLVDGVEGAFKKVGIPVFGPSPAAAMLEGSKSLSKEFMARHNIPTAAFRSFTSTQYEDAVAYIKSKPFTSGRSVIKASGLAAGKGVLIPETDEEAFAALKSVMVDKEFGDAGDEVVVEEYLSGPEISVLAFSDGYTIVPMPAAQDHKRIGEGDTGLNTGGMGAYAPAPIATKEIMERCVKDVLEPTIKGMREDGYPFVGMLFTGFMITADGPRVLEYNVRFGDPETQALMLLLDEQTDLAEVLLACVERRLDSIKLGYKQGYAVSVVLASEGYPGSYPKGLPMTLNPTPEGVEVFHAGTKRSDNVTVTDGGRVLAVCASAPTLRAAVDLAYSGISQISFQGQTFRRDIAYRALSSEPPAEPKGLTYAAAGVSVDAGNDLVEAIKPVVKATRRPGADSDIGGFGGAFDLAKAGYKDPILVSGTDGVGTKLRVALDHGKHNTVGIDLVAMSVNDLIVQGAEPLYFLDYYACSKLDVPVAADVITGIAEGCLQAGCALIGGETAEMPGMYHGDDYDLAGFAVGVVERAQILPTPDIASGDVLLALSSSGPHSNGFSLIRKIVSLSNLSLHDTAPWDKNTSVGDALLTPTKVYIKPLLPGIKSGLYKGMSHITGGGFTENIPRIFSSASNLGVKLDLTSYSLPAIWKWLMRAGNVEAKEMVRTFNCGVGMIIIVAKDKADAALSSLKENGEEAWVIGEVQEKKGVEYVGLDKFGL | 2 |
| Cryptococcus neoformans GARs single enzymatic unit (phosphoribosyl-glycinamide synthetase), recombinant His-tagged (domain or fragment) MPEITAFPQPKSDLSILLLGAGGREHALAFKLAQSSRVARIVVCPGNGGTALMGGKVSNLALPWGAPPAFRSIVEWAQKENIDLVVPGPEQPLVDGVEGAFKKVGIPVFGPSPAAAMLEGSKSLSKEFMARHNIPTAAFRSFTSTQYEDAVAYIKSKPFTSGRSVIKASGLAAGKGVLIPETDEEAFAALKSVMVDKEFGDAGDEVVVEEYLSGPEISVLAFSDGYTIVPMPAAQDHKRIGEGDTGLNTGGMGAYAPAPIATKEIMERCVKDVLEPTIKGMREDGYPFVGMLFTGFMITADGPRVLEYNVRFGDPETQALMLLLDEQTDLAEVLLACVERRLDSIKLGYKQGYAVSVVLASEGYPGSYPKGLPMTLNPTPEGVEVFHAGTKRSDNVTVTDGGRVLAVCASAPTLRAAVDLAYSGISQISFQGQTFRRDIAYRALSSEPPAEP | 2 |
| Cryptococcus neoformans AIRs single enzymatic unit (phosphoribosyl-aminoimidazole synthetase), recombinant His-tagged (domain or fragment) GFGGAFDLAKAGYKDPILVSGTDGVGTKLRVALDHGKHNTVGIDLVAMSVNDLIVQGAEPLYFLDYYACSKLDVPVAADVITGIAEGCLQAGCALIGGETAEMPGMYHGDDYDLAGFAVGVVERAQILPTPDIASGDVLLALSSSGPHSNGFSLIRKIVSLSNLSLHDTAPWDKNTSVGDALLTPTKVYIKPLLPGIKSGLYKGMSHITGGGFTENIPRIFSSASNLGVKLDLTSYSLPAIWKWLMRAGNVEAKEMVRTFNCGVGMIIIVAKDKADAALSSLKENGEEAWVIGEVQEKKGVEYVGLDKFGL | 2 |
